Test results from patent publication US20250074984A1.

Legend:
FcγRIIβ [1] = biological target: FcγRIIβ (UniProt P31994); experiment: ratio of the chip-kinetics KDs on Hu FcgRIIA_R167 and Hu FcgRIIB
FcγRIIβ [2] = biological target: FcγRIIβ (UniProt P31994); experiment: chip kinetics; antibody captured on protein A/G, receptor injected as analyte
[3] = biological target: human FcγRIIα_R167 (human) (UniProt P12318); experiment: as above
FcγRIIβ [4] = biological target: FcγRIIβ (UniProt P31994); experiment: ratio of the chip-kinetics KDs on Hu FcgRIIB and Hu FcgRIIA_R167
[5] = biological target: human FcγRIIα_H167 (human) (UniProt P12318); experiment: chip kinetics; antibody captured on protein A/G, receptor injected as analyte
human FcγRIIα_H167 (human), sequence (P12318 36-218): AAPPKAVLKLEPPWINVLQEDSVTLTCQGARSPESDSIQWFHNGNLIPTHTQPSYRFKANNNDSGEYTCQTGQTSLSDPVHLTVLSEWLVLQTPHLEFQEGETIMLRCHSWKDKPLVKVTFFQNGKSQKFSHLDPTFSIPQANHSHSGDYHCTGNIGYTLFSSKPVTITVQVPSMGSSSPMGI

FcγRIIβ, sequence (P31994 46-217): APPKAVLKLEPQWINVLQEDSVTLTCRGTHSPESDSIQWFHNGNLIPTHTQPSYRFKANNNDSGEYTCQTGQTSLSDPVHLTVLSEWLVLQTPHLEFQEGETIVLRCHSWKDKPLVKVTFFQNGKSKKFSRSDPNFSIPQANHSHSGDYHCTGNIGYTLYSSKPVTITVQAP
human FcγRIIα_R167 (human), sequence (P12318 36-218 H167R): as the sequence (P12318 36-218) above, with H132R counted along it

Row | Ratio iia/iib (KD human iia R/KD human iib) (FcγRIIβ [1]) | Fold = KD(IgG WT)/KD(variants) (FcγRIIβ [2]) | Kd (FcγRIIβ [2]) | Fold = KD(IgG WT)/KD(variants) [3] | Ratio iib/iia (KD human iib/KD human iia R) (FcγRIIβ [4]) | Kd [3] | Kd [5] | Substance
1 | 3.12 | 3.18 fold | 1.6 µM | < 0.3 fold | 0.32 |  |  | IgG1 P238D (antibody)
2 |  |  |  |  |  | 1.55 µM | 1 µM | IgG1 WT (antibody)
